This is an account of results in patent US6936431 (dated 2005).

“And” between values parts separate entries of the source, which are not always exact repeats. Identical values can stand only once. Like-named read-outs stand apart in the source and are kept apart here.

In assay [1] the target is T1, rat brain farnesyl:protein transferase (rat, UniProt Q04631 2-377; Q02293 1-437). As to the kind of experiment: farnesyltransferase activity inhibition; FIG. 10B.
Assay [2] addresses T1, rat brain farnesyl:protein transferase. In words: farnesyltransferase activity inhibition; FIG. 10C.
For assay [3] the target is unchanged.
Assay [4] shares this target. In words: farnesyltransferase activity inhibition; FIG. 12B.
Assay [5] has the same target. In words: farnesyltransferase activity inhibition; FIG. 12A.
For assay [6] the target is unchanged. In words: farnesyltransferase activity inhibition; FIG. 10A.
The target is the same in assay [7]. In words: farnesyltransferase activity inhibition; FIG. 11.

CVIK [CVIM with lysine at the X position (CVIK)] gave a Ki in assay [1] of over 30000 nM. CLIM showed an inhibitory constant (Ki) in assay [2] of 80 nM.

As to CVIM [CVIM (COOH-terminal tetrapeptide of p21^K-rasB)], in assay [3], the Ki was 350 nM and 200 nM. Regarding CVIL [CVIL (COOH-terminal tetrapeptide of rap2b)], in assay [2], the Ki was found to be 10500 nM.

Turning to CVFM, the Ki was found to be 35 nM in assay [4] and 10 nM in assay [5]. The molecule CVIA [CVIA (COOH-terminal tetrapeptide of a-Mating factor)] gave an inhibition constant Ki in assay [6] of 4000 nM. In assay [7], CFIM gave an inhibitory constant (Ki) of 500 nM. In assay [1], CVKM [CVIM with lysine at the A2 position (CVKM)] yielded an inhibitory constant (Ki) of over 30000 nM. In the case of CVLM, the Ki in assay [2] is 200 nM. As to CVAM, the Ki in assay [6] came to 6000 nM.

The term Ki denotes the equilibrium dissociation constant of an inhibitor or competing ligand from its target. The low end stands for higher affinity, the high end for lower affinity.
